Test results: a protein production outcome set (Wang et al. 2014)

Assay: label from the status in PepcDB records

Row | Sequence | protein production
1 | MMYTNDNRIVMTLDAGGTNFVFSAIQGGKEIADPVVLPACADCLDKCLGNLVEGFKAIQAGLPEAPVAISFAFPGPADYQAGIIGDLPNFPSFRGGVALGPFLEDIFGIPVFINNDGSLFAYGEALTGVLPEINRRLREAGSTKRYKNLLGVTLGTGFGAGVVIDGELLRGDNAAGGYVWCLRNKKYPEYIVEESVSIRAVMRVYAERSGDAGARTPKEIFEIAEGIRPGNREAAIAAFEELGEMAGDALASAITLIDGLIVIGGGLSGASKYILPVLLKEMNAQTGMMDGARFGRLQKEVYDLDEEKSFAGFARGEAVEVLVPGTNRKVGYDPCKRIGVTFSKQGANRSIAMGAYVFALNHLSK | not failed
2 | MKEDKKLVKQARQNFRSNLKSARMHYRKEVRTLKQTVPKKGRFRKSAKNSLFQEKKTELKGNLLSSQKEAEEKFIKEITYVSPRLLKAKEIKNYRLPQAQERLRTARKHLSEVKLSEKQQVVNPKFTFQKENPSLKSRFQFHQEKSFDRLSAEKDVSSAKREVKQLKKVQKTKKNSTKVKAGLGLAASESLDLIAQEDDLDGLRTMKDTSLKARRYGRFTYQAGKVAVKSGQTGVRFTKTKFSHGKERFQNFKKGKGFTRQKPLKPRRRYQTFLNHVRKQSVAGFKGIVQAIKGSMTFFSVLAGNPLTWIVSGILLILLLMMSFFMSVSGSSVIQQDEIELSKSYTHMTWEDAEHTRTNDKGITFYTKIDEVMVYMNHQYQDYKLDDFIETSGTTYKEFLSQLWSDLNGGDSIKSMSDLYKEPAYKLSDEDQEELNELTEEGNYLALQELDNPFQGQTDEDSLSMTYRYGYEVIDEKPTLHHHIILEAKEGQVIVAPMDGKVSLDGENVVLTSGKGVNKTKLTLFGIHSGRVSENQQVLAGDIIGQTKDGTGLKVTYQKVDDDTDKLVYVNPAFYFPKVIQVQTTILPTIGQFGGDEFERAKAIYDYLKSKGATNQAIAAILGNWSVESSINPKRAEGDYLSPPVGATDSSWDDEGWLTLNGPTIYNGRYPNILKRGLGLGQWTDTADGSRRHTLLLEYAKGKHQKWYDLGLQLDFMLYGDSPYYTNWLKDFFKNSGSPASLAQLFLIYWEGNSGDKLLERQTRASEWYYQIEKGFSQPNGGTAQSDPKALEAVREDLFENSIPGGGDGMGYAYGQCTWGVAARINQLGLKLKGKNGEKIPIISTMGNGQDWVRTAASLGGETGTSPQEGAILSFAGGGHGTPTEYGHVAFVEKVYPDGSFLISETNYNGNPNYTFRKLSGVDSSLSFAYTTK | failed
3 | MRRITVGPFNRVEGDLEVRLDIDDGVVVSAEVTAPLYRGFEQILEGRPSLDALTLAPRICGICSVSQSMAAVAALRAVDGLHPAPNGLHAANIAHAAENAADHLTHFYVFFMPDFARDSYAAWPWHPAVAERFTATRGTAAREVLPARARLLEIMGLIAGKWPHSLAFQPGGTTRAIGLGERVRLLSIIADFRGFLESIVFGDDLEAVLALRSAAALESWRDGRIGDFARFLAIADDLALDKLGRGATSLMSFGAYQGLEAPLFAAGLYDPATSTPRVLDIDAITEDVSHAWMRDTAAEPALAQTLPDADRPGGYSWCKAPRLDSRPIEVGALARQAVDGDALIRDLVRRHGPNVRTRVIARLLETARLALAMDRWARQIALDAPFLDAAARVGEGAGIGLVEAARGSLGHWIELSGDRIRRYQIIAPTTWNFSPRDADGVAGPLEQALVGTPVGAEGAASVAVQHVVRSFDPCMVCTAH | failed
4 | MSISISSIPDLTTVRARHPEAIAEAAARRVRRPLIGDSGRLMIVAADHPARGALGVGDRGLAMANRADLLERLCTALSRPGVDGVLATADVLEDLLLLGVLENKVVMGSMNRGGLAGAAFEMDDRFTGHRAEDIARLRFDAGKLLLRIDYDDPGSLTTMEASARAVDAMAARELPLFVEPFISRRIDGRVRNDLSAEAVTRSVAIASGLGGTSAYTWLKLPVTRNPDDMAEVLETSTLPAVLLGGDIGGSPADQTAAYERWRKALRLPTVQGMVVGRSLLYPAGGSVEEAVDTAVGLL | failed
5 | MTTTTAQPAASLAAALEHAERLLEVDPVMAAEQARAILEVVPRHADTTRVLAAAQRLSGDAEGGLATVAPLAMALPNLPLAQLELALCLERLGRTAEAARAFDRVSALEPRLSEAWRGLSESLELLGDRQGAERALARQLRASTRDPLLVEAATALAEDRLGEAERLLRDRLKADAGDVAAIRMLAETGARLGRYADAEALLTRCMELAPNFAAARHNLATMLYRQNKNLEALAQIEQLVAKDARHPGYANLYAAILARLGEYDRAIAVYGQVLADYPNQPKGWMSYGHALKTVGRQADSVAAYRKALDLAPTLGEVWWSLANLKTVRFTPEDLAAMSQALEAEGLSEDDRLHLHYALGKAQEDAQDWDASFQHYAAGAAIRREQLDYDADENTADTVRTKAVFSPAFIAARGGQGCAAPDPIFVVGLPRSGSTLVEQILASHSLVEGTMELPDLIVMARRLGGKTAKRAESTYPESLAELSPEDLRALGEEFLERTRIQRKTDKPFFIDKMPNNFAHTGLIHLILPNAKIIDARRHPLGCCFSGFKQHFARGQAFSYDLTDIGRYYADYVDLMAHFDAVLPGRVHRVIYERMIADPEAEIRALLDHCGLPFEEACLSPHENDRAVRTASSEQVRRPIFKDAVEHWQKFESHLGPLKQALGPVLTAYPDAPVI | failed
6 | MEDGHISSWWVVDLGEEHQLMCNYYTFRQDGSRAFTRFWKFQGSMDGKTWTDLRVHEDDQTMCKAGQFASWPITAANALLPFRFFRLVLTGPTADTSTPWNFCICYLELYGYFR | failed
7 | QAVPCRAPKVGRLIYTAGGYFRQSLSYLEAYNPSNGSWLRLADLQVPRSGLAGCVVGGLLYAVGGRNNSPDGNTDSSALDCYNPMTNQWSPCASMSVPRNRIGVGVIDGHIYAVGGSHGCIHHSSVERYEPERDEWHLVAPMLTRRIGVGVAVLNRLLYAVGGFDGTNRLNSAECYYPERNEWRMITPMNTIRSGAGVCVLHNCIYAAGGYDGQDQLNSVERYDVETETWTFVAPMRHRSALGITVHQGKIYVLGGYDGHTFLDSVECYDPDSDTWSEVTRMTSGRSGVGVAVTMEPCRKQIDQQNCTC | not failed
8 | MTLTALFAAFCGLYLLIGGAWLVVLGGSWYYPIAGLVMLGVTVMLFRGKRAALWLYAALLLATMIWGVWEVGFDFWALTPRSDILVFFGIWLILPFVWRRLPVPSAGAVGALVVALLISGGMLTWAGFNDPQEVNGTLSADATPAAPISTVADGDWPAYGRNQEGQRFSPLKQINADNVKNLKEAWVFRTGDLKQPNDPGEITNEVTPIKVGDTLFLCTAHQRLFALDAATGKEKWHFDPQLNADPSFQHVTCRGVSYHEAKADNAPADVVADCPRRIILPVNDGRLFAVNADNGKLCETFANKGILNLQTNMPVTTPGMYEPTSPPIITDKTIVIAGAVTDNFSTREPSGVIRGFDVNTGKLLWAFDPGAKDPNAIPSDEHHFTLNSPNSWAPAAYDAKLDLVYLPMGVTTPDIWGGNRTPEQERYASSIVALNATTGKLAWSYQTVHHDLWDMDMPSQPTLADIEVNGKTVPVIYAPAKTGNIFVLDRRNGELVVPAPEKPVPQGAAKGDYVTKTQPFSDLSFRPKKDLTGADMWGATMFDQLVCRVIFHQLRYEGIFTPPSEQGTLVFPGNLGMFEWGGISVDPNRQVAIANPMALPFVSKLIPRGPGNPMEPPKDAKGSGTESGVQPQYGVPYGVTLNPFLSPFGLPCKQPAWGYISALDLKTNEVVWKKRIGTPQDSLPFPMPVKLPFTMGMPMLGGPISTAGNVLFIGATADNYLRAYNMSNGEKLWEARLPAGGQATPMTYEVNGKQYVVISAGGHGSFGTKMGDYIVAYALPDDAK | failed
9 | MAVERPGYLRIAAELRKRISSGEFGIGDQIPTLPALAEEYGVLETTVRNALALLRNEGLIETRARAGTRVRERPPIHRLTADRYRNKAGVPSTPFTRDQGIGWSEYRLDKKYEQVEATMELAALFECEVGEPLLARHFVFHDNDQPTQMSVSYLRWSDVEGSPVADPIHEPWPGGTQAQLASIGIRVTEITESFTCGMPTDHESKTLKIGSGVPVLRYTRRHIAEDGRIVEVAHPIVRRGDTTVVDFVIKLD | failed
10 | MTDDVTNVEQPSTASEQQPQDVPAAEPSAAKKRRANKAKSKATAAAIEQRLGHSFADPSLLTTAFTHVSALKSARRTDSYQRLEFLGDHVLGLIVSDMLYRAFPDADEGELSKRLADLVRKETCADVARSLDLVEGIKLGTVGAGAGAKLRKSVLGDICEAVIGAIYLDGGYEAASDFVRRNWTERMRKPARSLRDPKTVLQEWAQARGLPTPVYREVERTGPHHDPQFRVAVILPGLEPAEGLGGSKRAAEKVAASAMLAREGVGTGGNDG | failed
11 | MNHRDKQIDSGSGSGENRRTYDCDICKRGFTNPQALGGHNNIHRRERERYPSSSSSSHSFPFSLPLPSQSPSSSTNFTNPPPYFPTIESYLHQGSQPPINPSHNTQYFGSSSSSRGGGRFAQGASHDLNLSLGLGSMNEDDDTHRSPPETGGSQPQDGDLDLDLRLGGHRHH | failed
12 | MASPAAGDVLIVGSGLVGRSWAMLFASGGFRVKLYDIEPRQITGALENIRKEMKSLQQSGSLKGSLSAEEQLSLISSCTNLAEAVEGVVHIQECVPENLDLKRKIFAQLDSIVDDRVVLSSSSSCLLPSKLFTGLAHVKQCIVAHPVNPPYYIPLVELVPHPETSPATVDRTHALMRKIGQSPVRVLKEIDGFVLNRLQYAIISEAWRLVEEGIVSPSDLDLVMSDGLGMRYAFIGPLETMHLNAEGMLSYSDRYSEGMKRVLKSFGSIPEFSGATVEKVNQAMCKKGPADPEHLAARREWRDECLKRELAKLKRQMQPQ | not failed
13 | MEQPQEEAPEVREEEEKEEVAEAEGAPELNGGPQHALPSSSYTDLSRSSSPPSLLDQLQMGCDGASCGSLNMECRVCGDKASGFHYGVHACEGCKGFFRRTIRMKLEYEKCERSCKIQKKNRNKCQYCRFQKCLALGMSHNAIRFGRMPEAEKRKLVAGLTANEGSQYNPQVADLKAFSKHIYNAYLKNFNMTKKKARSILTGKASHTAPFVIHDIETLWQAEKGLVWKQLVNGLPPYKEISVHVFYRCQCTTVETVRELTEFAKSIPSFSSLFLNDQVTLLKYGVHEAIFAMLASIVNKDGLLVANGSGFVTREFLRSLRKPFSDIIEPKFEFAVKFNALELDDSDLALFIAAIILCGGE | not failed
14 | MGLLDHLWDDTVAGPRPENGLGKLRKHHTFSFRPSSGNDQSEAGSARSYGEDSLPEEAVKVTRSIMIIKPPGYQGSSAPASPAGSTPPLSPFSPPLSPFSANAGGKEPFRFRRRSTSDAFEKAAGGSETGPRSSPPTYGM | failed
15 | MDLFSNLALGFQVAASPTNLLLCLTGALVGTLIGVLPGIGTIATVAMLLPITFGLPPVGALIMLAGIYYGAQYGGSTTSILVNIPGEATSVVTTLDGFQMAKQGRAGPALAIAAIGSFAAGCFATVLIALVGEPLTRLALEFGPAEYFSLMVLGLVFAVVLARGSVLKAVAMIVLGLLLSTVGSDIETGVSRMTFDVPELADGLGFATVAMGVFGFAEIIRNLDFGAATDRELVQQKITGLMPTRKDLRDAAPAIGRGTLLGSLLGILPGGGAVIASFAAYTLEKKIARDPKRFGRGAIEGVAAPESANNAAAQTSFIPLLTLGIPPNAVMALMVGAMTIHNIVPGPQVMKNQPELVWGMIASMWIGNLMLLVINLPLVGIWVRLLRVPYRLMFPSIVVFCCIGIYSVNNAPVDVVLAGAFGLIGYWLVKHDFEPAPLLLGMVLGPLMEDNLRRALLISRGDATAFVTRPLSASLLVVAAGLLILSVLPMLRRKRDEVFVESEG | failed
16 | VLAPNVYFNPDAPPRKKRPLNVCAPEVVFFPTEDGVNLRLTRYNGGGKGPVMLVHGLGVGSNIFSTDTISTNLLEYLYQHGYDVWLLDFRVSILLPASQQQWDGDQVARYDYPAAIRRIREATGAADVQCVVHCYGATTFFMSMLAGLEGVRSVVCSQIAADIVVPTATQVKTGLHLPTVLDKLGVSSLTAYTASDSNWFEKLYDTALKGYALAEAQGYCNNPVCHRITFMYASLYRHETLNETLHDNLHELFGVANMRTMEHLARMCREGRLVSFDGDDIYMPHFDRLQMPILFISGEQNECYLPESTERTFDKLAQRFGPERYSRLVVPGYGHIDCMFGKNAAADVYPAIVAHLDKT | failed
